# Measurements reported in the DeepSol protein solubility set.
# Test: soluble on expression in E. coli; label from the status in PepcDB or PDB records
row,Sequence,soluble on expression in E. coli
1,AHHHHHHGSKVVALLSSGIDSPVAIHLMASRGVEVYPLHFRQDEVKERKVRKVVKKLQEIHGEKVKDPHTVNAYEVQAPVFEKLKEIKKGKWTCVFCKYTMYIVAESYAKKVGASAIITGDSLGQVASQTLDNLLVISTATKLPVIRPLIGLDKEEIVKIAKEIGTFEISIEEEPPCPFVPKFPVVRAGLGEFQKILSQVKDKLPRGDL,soluble
2,SNAMTKKKVYIVSHSHWDREWYLPYEEHHMRLIELVDNVLDLIENDPEFNSFHLDGQTIILDDYLQVRPEKKEAVKKAVQAGKLKIGPFYILQDDFLISSESNVRNMLIGHLESQKWGAPVQLGYFPDTFGNMGQTPQMMQLANLPAAAFGRGVKPIGFDNQVLESDYSSQYSEMWWEGPDQTKIFGLLFANWYSNGNEIPSEKEAAIAFWKQKLADVERYASTNHLLMMNGVDHQPVQRDITKAIALANELFPEYEFIHSNFDDYLKAVQEELPEDLGTVTGELTSQETDGWYTLANTSSARVYLKQWNTKVQRQLENIAEPLAAMAYEVTGDYPHDQFDYAWKTLLQNHPHDSICGCSVDEVHRGMMTRFENANDVGHFLADEATRQLTEAIDTSVFPEKAHPFVLFNTSGYQKTEVVTVEVEIERLPFYTGKPEDLYHELKQKATPDYQVIDPTGKAVASRIVKEDVRFGYDLPKDAFRQPYMAKYLTVELSVKEMAPFSWDSFALIQGETKAFEGSLLAQPATNEMENEFIQVKIENNGSLTIADKKTGETFSKLLTFEDTGDIGNEYIFFKPTEDQGITTENVTAEITNKENSPVKASYQIKQTVMLPVAADERLEEEQKAVREFRERLAQRSTTLRPFEITTMVTMIKESNQLFFETTINNQIKDHRLRVLFPTGMVTETHEADSIYEVVTRPNQVSDTWENPTNPQHQQAFVNVHDQNKGVTIFNEGLNEYEVLADGTIAVTLIRCVGELGDWGYFATPEAQCQGEYTFKYGLSLHGKPEERFATYQQAYSAQIPFTAATTARHEGKLAPNHVYLTTAEGPIGWTAVKRQEQTNHLVVRGFNLTAQNIPCELHKETQPATCLTNVLEEPLTPAIEVDAPLRPFEIRTWRFEK,soluble
3,MGSDKIHHHHHHMMSFREDKLLATNVPMRIVSLISKINEYKGKQVLYNQQAPEVLNTLKNVAIIQSTRASNSLEGITIKDTRLIDIMQNKVQPANRSEGEIAGYRDVLATIHSSYDAIPVKPSILLQFHRDLYRFISLEGGSWKNSDNAIEEVYPDGSKFVRFNPVSSFATPGAIEELCKFYNQYSNSGEIDSLMLISATILDFLCIHPFCDGNGRMARLLTLLLLYKEGYEVGRFISLEQIIEESKDAYYDTLYQSSQNWHEGKHDLLIWSEYLLGIILAAYKELMDRVGKVSRARGNKAMRVEETIDHFVSNFSINDIRRRCPDISPSTINRVLAKLRDANKIEVLGIGRGAKWKKNY,not soluble
4,MGSSHHHHHHSSGLVPRGSHMEELQKSIGHKPEPTDEEWELIKTVTEAHVATNAQGSHWKQKRKFLPEDIGQAPIVNAPEGGKVDLEAFSHFTKIITPAITRVVDFAKKLPMFCELPCEDQIILLKGCCMEIMSLRAAVRYDPESETLTLNGEMAVTRGQLKNGGLGVVSDAIFDLGMSLSSFNLDDTEVALLQAVLLMSSDRPGLACVERIEKYQDSFLLAFEHYINYRKHHVTHFWPKLLMKVTDLRMIGACHASRFLHMKVECPTELFPPLFLEVFED,soluble
5,MGSDKIHHHHHHMHLTKTWLAQLPLTDIQQVQPVSGGDINAAFQIITRHHQYFLKVQPHNDVTFFDHEVAGLRLLGAVTKTPRVIASGTIATDGYLLLDWLATGTGSQSALGAAVAKVHHQHHAQFGLDHDFTAGKLPKINHWQTDWATFYTQQRLDVLVNLAKEHHLWSETREMHYHRLRQQLLQDSHMHTVKPSLLHGDLWSGNYLFDTTGTPVLIDPDVFYGDREMDLAMTTIFGGFDTDFYQAYQAAYPVAPGMQDRLPSYQLYYLLAHLNLFGETYGPAVDRILMQY,not soluble
6,GYSQYNIHGNQFYNLGIDYAYRWHRFSFQGETAMGKQGSATLNRFQYSPVEGTQLMIVQRYYSYNYWAMFAHSFGEGSAVQNEQGYYLGVETSPFRYWHILASFDLFSFPWKKYRISKPSRGMDGLLQATFTPHNNLTMYLKYRYKQKERDLTGSKENLTLPIFHHQLRYRLNYFYGDVFSCRTTLDYNHFHSQDRAASKGYQVTQMMSSQLPWTRLFADVQGSYFSTDDYDSRVYVSEKGLLYTFYTPSFQGRGFRCAVRLRYEPNEHWMFITKFGETVYLDRNEIGSGNDLILGNKKADVQMQLRIKF,not soluble
